# T1: YBEY-3 × FLAG (human), P58557
# T1 chain: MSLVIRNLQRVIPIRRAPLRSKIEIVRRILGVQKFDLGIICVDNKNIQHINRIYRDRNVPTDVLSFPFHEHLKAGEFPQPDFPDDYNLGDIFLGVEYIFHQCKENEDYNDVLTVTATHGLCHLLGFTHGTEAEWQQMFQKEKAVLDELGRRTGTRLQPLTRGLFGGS
# Biological target: T1, YBEY-3 × FLAG (human), P58557
# Assay: affinity purification with mass spectrometry; α-FLAG antibody and protein A-sepharose on mitochondrial lysates (0.5% n-dodecyl-β-D-maltoside, 20 mM Tris-HCl pH 7.5, 150 mM KCl, 4°C) of SAL001 cells expressing YBEY-3 × FLAG; parental Flp-In T-REx 293 as control; LC-MS/MS, spectral counts; YBEY:p32 stoichiometry from spectral abundance factors
# Settings: remark: other sources report otherwise
binder,measurement,value
"p32/C1QBP, endogenous, Q07021 74-282 (natural protein) LHTDGDKAFVDFLSDEIKEERKIQKHKTLPKMSGGWELELNGTEAKLVRKVAGEKITVTFNINNSIPPTFDGEEEPSQGQKVEEQEPELTSTPNFVVEVIKNDDGKKALVLDCHYPEDEVGQEDEAESDIFSIREVSFQSTGESEWKDTNYTLNTDSLDWALYDHLMDFLADRGVDNTFADELVELSTALEHQEYITFLEDLKSFVKSQ",stoichiometry N,1

# From paper PMC7515705
